The target in assay [1] is T1, Human BCMA (human, UniProt Q02223 1-54, limits assumed).
T1 construct: Soluble analyte in SPR; construct not described; also called huBCMA; B-cell maturation antigen
T1 sequence (looked up): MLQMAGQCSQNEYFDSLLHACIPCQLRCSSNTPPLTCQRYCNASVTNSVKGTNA
Description: SPR, IgG immobilised, 37 C. In outline:
(§1)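 IgG amine-coupled to the chip; human or cynomolgus BCMA analyte injected by kinetic titration at 0.08–50 nM (2 min each), 2 h dissociation, in HBS-T+ with 1 mg/mL BSA, pH 7.4, at 37° C or 25° C. Double-referenced sensorgrams fit to 1:1 Langmuir with mass transport.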

Assay [2] addresses T2, cynomolgus monkey BCMA (cynomolgus monkey, UniProt A0A2K5UD97 1-53).
T2 construct: Soluble analyte in SPR; construct not described; also called cyBCMA; Cyno BCMA
Description: SPR, IgG immobilised, 37 C. Summed up: as §1

From patent US20160297884A1 (Pfizer, published 2016) come the findings set out here.

T2 sequence (A0A2K5UD97 entry or part of it): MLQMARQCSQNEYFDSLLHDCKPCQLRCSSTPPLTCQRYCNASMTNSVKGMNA

B1: L3.PY/H2.LT (antibody, V domains shown)
VH: EVQLLESGGGLVQPGGSLRLSCAASGFTFGSYAMTWVRQAPGKGLEWVSAISLTGGNTFYADSVKGRFTISRDNSKNTLYLQMNSLRAEDTAVYYCARVSPIASGMDYWGQGTLVTVSS
VL: EIVLTQSPGTLSLSPGERATLSCRASQSVSSSYLAWYQQKPGQAPRLLIYGASSRATGIPDRFSGSGSGTDFTLTISRLEPEDFAVYYCQHYPYPPSFTFGQGTKVEIK
notes: IgG
One may read the Kd as the constant that tells how readily two partners part at equilibrium. Broadly, the koff is a measure of how fast the partners let go of each other. The kon is the second-order rate constant of association. As for B1, in assay [1], binding was put at a Kd of 0.54 nM, the “T ½” value amounted to 8.95 min, the koff is 0.00129 s⁻¹ and the kon was determined as 2.4e+06 M⁻¹ s⁻¹. In addition, in assay [2], the dissociation constant (Kd) was 3.63 nM, the “T ½” value was 1.53 min, the dissociation rate constant (koff) worked out at 0.00757 s⁻¹ and the kon stood at 2.09e+06 M⁻¹ s⁻¹.

B2: L3.PY/H3.AE (antibody, V domains shown)
VH: EVQLLESGGGLVQPGGSLRLSCAASGFTFGSYAMTWVRQAPGKGLEWVSAISGSGGNTFYADSVKGRFTISRDNSKNTLYLQMNSLRAEDTAVYYCARVSPIAAEMDYWGQGTLVTVSS
VL: EIVLTQSPGTLSLSPGERATLSCRASQSVSSSYLAWYQQKPGQAPRLLIYGASSRATGIPDRFSGSGSGTDFTLTISRLEPEDFAVYYCQHYPYPPSFTFGQGTKVEIK
notes: IgG
Take B2: in assay [1], the affinity, expressed as Kd, was 0.42 nM; the “T ½” value was 8.32 min; the koff was determined as 0.00139 s⁻¹; the kon worked out at 3.29e+06 M⁻¹ s⁻¹. Moreover, in assay [2], the dissociation constant Kd stood at 1.79 nM, the “T ½” value turned out to be 2.29 min, the koff came to 0.00504 s⁻¹ and the kon amounted to 2.82e+06 M⁻¹ s⁻¹.

B3: L3.PY/L1.AH/H2.DY (antibody, V domains shown)
VH: EVQLLESGGGLVQPGGSLRLSCAASGFTFGSYAMTWVRQAPGKGLEWVSAIDYSGGNTFYADSVKGRFTISRDNSKNTLYLQMNSLRAEDTAVYYCARVSPIASGMDYWGQGTLVTVSS
VL: EIVLTQSPGTLSLSPGERATLSCRASQSVSAHYLAWYQQKPGQAPRLLIYGASSRATGIPDRFSGSGSGTDFTLTISRLEPEDFAVYYCQHYPYPPSFTFGQGTKVEIK
notes: IgG
Take B3: in assay [1], binding was characterised by a dissociation constant (Kd) of 0.5 nM, the “T ½” value worked out at 7.62 min, the off-rate constant (koff) came out at 0.00152 s⁻¹ and the association rate constant (kon) turned out to be 3.05e+06 M⁻¹ s⁻¹. In addition, in assay [2], the Kd came out at 1.95 nM, the “T ½” value is 2.56 min, the koff came out at 0.00451 s⁻¹ and the kon stood at 2.32e+06 M⁻¹ s⁻¹.

B4: L3.PY/H3.TAQ (antibody, V domains shown)
VH: EVQLLESGGGLVQPGGSLRLSCAASGFTFGSYAMTWVRQAPGKGLEWVSAISGSGGNTFYADSVKGRFTISRDNSKNTLYLQMNSLRAEDTAVYYCTRVSPIAAQMDYWGQGTLVTVSS
VL: EIVLTQSPGTLSLSPGERATLSCRASQSVSSSYLAWYQQKPGQAPRLLIYGASSRATGIPDRFSGSGSGTDFTLTISRLEPEDFAVYYCQHYPYPPSFTFGQGTKVEIK
notes: IgG
As for B4, in assay [1], binding was characterised by a dissociation constant (Kd) of 0.37 nM, the “T ½” value came out at 10.1 min, the off-rate (koff) amounted to 0.00114 s⁻¹ and the kon came to 3.08e+06 M⁻¹ s⁻¹. In assay [2], binding was characterised by a dissociation constant (Kd) of 1.7 nM, the “T ½” value came to 2.64 min, the dissociation rate constant (koff) turned out to be 0.00437 s⁻¹ and the on-rate (kon) came to 2.57e+06 M⁻¹ s⁻¹.

B5: L3.PY/H2.YQ (antibody, V domains shown)
VH: EVQLLESGGGLVQPGGSLRLSCAASGFTFGSYAMTWVRQAPGKGLEWVSAISYQGGNTFYADSVKGRFTISRDNSKNTLYLQMNSLRAEDTAVYYCARVSPIASGMDYWGQGTLVTVSS
VL: EIVLTQSPGTLSLSPGERATLSCRASQSVSSSYLAWYQQKPGQAPRLLIYGASSRATGIPDRFSGSGSGTDFTLTISRLEPEDFAVYYCQHYPYPPSFTFGQGTKVEIK
notes: IgG
As for B5, in assay [1], the Kd worked out at 0.6 nM, the “T ½” value worked out at 7.41 min, the koff was 0.00156 s⁻¹ and the association rate constant (kon) is 2.58e+06 M⁻¹ s⁻¹. In assay [2], the equilibrium dissociation constant (Kd) was 2.53 nM, the “T ½” value stood at 1.86 min, the koff was found to be 0.00621 s⁻¹ and the on-rate (kon) was 2.46e+06 M⁻¹ s⁻¹.

B6: L3.PY/H2.QL (antibody, V domains shown)
VH: EVQLLESGGGLVQPGGSLRLSCAASGFTFGSYAMTWVRQAPGKGLEWVSAISGSGGNTFYADQLKGRFTISRDNSKNTLYLQMNSLRAEDTAVYYCARVSPIASGMDYWGQGTLVTVSS
VL: EIVLTQSPGTLSLSPGERATLSCRASQSVSSSYLAWYQQKPGQAPRLLIYGASSRATGIPDRFSGSGSGTDFTLTISRLEPEDFAVYYCQHYPYPPSFTFGQGTKVEIK
notes: IgG
As to B6, in assay [1], the Kd came to 0.82 nM, the “T ½” value is 5.31 min, the off-rate (koff) turned out to be 0.00218 s⁻¹ and the kon was determined as 2.64e+06 M⁻¹ s⁻¹. In assay [2], the equilibrium dissociation constant (Kd) was determined as 6.16 nM, the “T ½” value worked out at 0.91 min, the koff was found to be 0.0126 s⁻¹ and the kon was 2.05e+06 M⁻¹ s⁻¹.

B7: L3.PY/H3.AQ (antibody, V domains shown)
VH: EVQLLESGGGLVQPGGSLRLSCAASGFTFGSYAMTWVRQAPGKGLEWVSAISGSGGNTFYADSVKGRFTISRDNSKNTLYLQMNSLRAEDTAVYYCARVSPIAAQMDYWGQGTLVTVSS
VL: EIVLTQSPGTLSLSPGERATLSCRASQSVSSSYLAWYQQKPGQAPRLLIYGASSRATGIPDRFSGSGSGTDFTLTISRLEPEDFAVYYCQHYPYPPSFTFGQGTKVEIK
notes: IgG
For the molecule B7, in assay [1], the Kd is 0.56 nM, the “T ½” value amounted to 6.69 min, the off-rate (koff) was found to be 0.00173 s⁻¹ and the association rate constant (kon) was determined as 3.08e+06 M⁻¹ s⁻¹. In assay [2], the Kd came out at 1.94 nM, the “T ½” value was determined as 2.14 min, the koff turned out to be 0.00539 s⁻¹ and the kon turned out to be 2.77e+06 M⁻¹ s⁻¹.

B8: L3.PY/H3.YA (antibody, V domains shown)
VH: EVQLLESGGGLVQPGGSLRLSCAASGFTFGSYAMTWVRQAPGKGLEWVSAISGSGGNTFYADSVKGRFTISRDNSKNTLYLQMNSLRAEDTAVYYCARVSPIYAGMDYWGQGTLVTVSS
VL: EIVLTQSPGTLSLSPGERATLSCRASQSVSSSYLAWYQQKPGQAPRLLIYGASSRATGIPDRFSGSGSGTDFTLTISRLEPEDFAVYYCQHYPYPPSFTFGQGTKVEIK
notes: IgG
For B8, in assay [1], binding was characterised by a dissociation constant (Kd) of 0.37 nM, the “T ½” value worked out at 9.82 min, the koff is 0.00118 s⁻¹ and the kon worked out at 3.15e+06 M⁻¹ s⁻¹. Besides, in assay [2], the dissociation constant (Kd) was 1.88 nM, the “T ½” value is 2.14 min, the koff is 0.0054 s⁻¹ and the kon was determined as 2.87e+06 M⁻¹ s⁻¹.

B9: L3.PY/L1.AH/H2.HA (antibody, V domains shown)
VH: EVQLLESGGGLVQPGGSLRLSCAASGFTFGSYAMTWVRQAPGKGLEWVSAISHAGGNTFYADSVKGRFTISRDNSKNTLYLQMNSLRAEDTAVYYCARVSPIASGMDYWGQGTLVTVSS
VL: EIVLTQSPGTLSLSPGERATLSCRASQSVSAHYLAWYQQKPGQAPRLLIYGASSRATGIPDRFSGSGSGTDFTLTISRLEPEDFAVYYCQHYPYPPSFTFGQGTKVEIK
notes: IgG
As to B9, in assay [1], the dissociation constant Kd worked out at 0.54 nM, the “T ½” value was found to be 6.37 min, the off-rate constant (koff) is 0.00181 s⁻¹ and the kon was 3.33e+06 M⁻¹ s⁻¹. In assay [2], the affinity, expressed as Kd, was 1.7 nM; the “T ½” value worked out at 2.63 min; the koff is 0.00439 s⁻¹; the kon is 2.58e+06 M⁻¹ s⁻¹.

B10: L3.PY/H2.QR (antibody, V domains shown)
VH: EVQLLESGGGLVQPGGSLRLSCAASGFTFGSYAMTWVRQAPGKGLEWVSAISGSGGNTFYADQRKGRFTISRDNSKNTLYLQMNSLRAEDTAVYYCARVSPIASGMDYWGQGTLVTVSS
VL: EIVLTQSPGTLSLSPGERATLSCRASQSVSSSYLAWYQQKPGQAPRLLIYGASSRATGIPDRFSGSGSGTDFTLTISRLEPEDFAVYYCQHYPYPPSFTFGQGTKVEIK
notes: IgG
In the case of B10, in assay [1], the affinity, expressed as Kd, was 0.46 nM; the “T ½” value was 9.75 min; the koff amounted to 0.00119 s⁻¹; the kon came to 2.56e+06 M⁻¹ s⁻¹. In addition, in assay [2], the affinity, expressed as Kd, was 3.02 nM; the “T ½” value worked out at 1.76 min; the off-rate (koff) worked out at 0.00658 s⁻¹; the on-rate constant (kon) stood at 2.18e+06 M⁻¹ s⁻¹.
